In US20240279353A1 (KIROMIC BIOPHARMA, published 2024):
One block for each molecule: values may come before it.

Key:
Test in all cases: EC50 binding assay (ELISA screening, format not stated)
[1] = target: Mesothelin Isoform 1, as used in the EC50 binding assay (human) (UniProt Q13421)
[2] = target: Mesothelin Isoform 2 (IsoMSLN), as used in the EC50 binding assay (human) (UniProt Q13421)
[3] = target: T1, Mesothelin Isoform 2 (IsoMSLN), as used in the EC50 binding assay (human, UniProt Q13421 37-598)
T1 construct: also called MSLN Isoform 2; mesothelin isoform-2 polypeptide
T1 sequence (Q13421 37-606 limits assumed, form in doubt): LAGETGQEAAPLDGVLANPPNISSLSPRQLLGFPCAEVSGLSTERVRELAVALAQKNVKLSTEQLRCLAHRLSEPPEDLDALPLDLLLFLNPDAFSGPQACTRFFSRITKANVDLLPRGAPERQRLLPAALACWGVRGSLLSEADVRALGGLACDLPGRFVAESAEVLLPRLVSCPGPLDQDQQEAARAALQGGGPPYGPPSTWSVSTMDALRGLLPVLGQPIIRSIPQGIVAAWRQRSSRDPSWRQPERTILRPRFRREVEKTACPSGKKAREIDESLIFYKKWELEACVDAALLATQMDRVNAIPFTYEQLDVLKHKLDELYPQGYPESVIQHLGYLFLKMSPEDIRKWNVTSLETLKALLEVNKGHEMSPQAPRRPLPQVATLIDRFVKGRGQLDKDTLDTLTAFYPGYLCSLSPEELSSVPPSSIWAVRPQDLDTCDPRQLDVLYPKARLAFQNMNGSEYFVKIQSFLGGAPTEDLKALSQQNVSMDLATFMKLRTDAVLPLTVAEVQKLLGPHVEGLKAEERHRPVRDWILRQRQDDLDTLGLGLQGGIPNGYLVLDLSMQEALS

Mesothelin Isoform 1, as used in the EC50 binding assay (human), sequence (Q13421 other isoform, or with tags, fused parts or gaps limits assumed): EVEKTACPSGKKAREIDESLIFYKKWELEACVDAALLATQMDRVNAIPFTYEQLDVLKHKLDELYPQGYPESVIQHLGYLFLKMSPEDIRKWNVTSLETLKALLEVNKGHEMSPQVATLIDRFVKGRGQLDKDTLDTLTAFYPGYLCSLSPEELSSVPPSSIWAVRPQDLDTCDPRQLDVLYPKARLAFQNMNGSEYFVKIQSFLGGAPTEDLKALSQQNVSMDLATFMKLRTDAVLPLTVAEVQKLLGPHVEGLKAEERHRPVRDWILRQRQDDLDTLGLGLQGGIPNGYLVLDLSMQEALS
Mesothelin Isoform 2 (IsoMSLN), as used in the EC50 binding assay (human), sequence (Q13421 37-606 limits assumed, form in doubt): as the sequence (Q13421 37-606 limits assumed, form in doubt) above

EC50 [1]: 0.15 mg/L
EC50 [2]: 0.11 mg/L
Molecule: anti-MSLN antibody clone K1 (commercially available)

EC50 [3]: 0.073 mg/L
B1: anti-IsoMSLN monoclonal antibody clone 1B6 (antibody, V domains shown)
VH: EVKLVESGGGLVKPGGSLKLSCEASGFTFSRYAMSWVRHTPEKRLAWVASITFGGDPYYPDGLKGRFTISRDNTRNILYLQMNSLRSEDTAMYYCVRHESWFAYWGQGTLVTVSA
VL: DVLMTQTPLSLPVSLGEQVSISCRSSQTIVHTDGNIYLEWYLQNPGQSPRLLIYKISNRFSGVPDRFSGSGSGTDFTLKISRVEAEDLGIYYCFQASHVPYTFGGGTKLEIK
notes: also called IB6
